Data on two molecules can be found in US20250129150A1 (APOGEE THERAPEUTICS, published 2025).

The target of assay [1] is T1, hIL-13 (human, UniProt P35225 35-146, limits assumed). Put plainly: cell-based or functional assay.
Assay [2] has as its target T2, Recombinant Human IL-13 Protein, His Tag (Acro Cat. IL3-H52H4) (human, UniProt P35225 35-146).
T2 construct: Bought protein; also called Hu IL-13; not shown: His Tag
In words: SPR (Biacore 8K), mAb captured on Protein G chip, IL-13 as analyte. Here is the method: (§1) Samples were injected in a multi-cycle manner over freshly captured mAb, by regenerating the capture surfaces with injection of glycine pH 1.5 for 30 sec at a flow rate of 30 μL/min. The data was processed and analyzed with Biacore Insight Evaluation Software Version 2.0.15.12933 (GE Healthcare) as follows. […] The responses from the two buffer blank injections were then subtracted from the reference subtracted data (2-1) to yield double-referenced data, which were fit to an 1:1 binding model to determine the apparent association (ka) and dissociation rate constants (kd). Their ratio provided the apparent equilibrium dissociation constant or affinity constant (KD=kd/ka).

Assay [3] deals with T3, Recombinant Cynomolgus IL-13 Protein, His Tag (SINO BIOLOGICAL, Cat. 11057-C07H) (cynomolgus monkey, UniProt Q5I6E4 19-132 (Macaca thibetana entry)).
T3 construct: also called Cyno IL-13; cynomolgus monkey IL-13
T3 chain: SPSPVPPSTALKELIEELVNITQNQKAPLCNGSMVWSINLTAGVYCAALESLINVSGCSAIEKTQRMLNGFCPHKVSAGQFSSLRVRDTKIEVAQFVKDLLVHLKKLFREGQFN
The description is as above. Here is the method: as §1

Assay [4] has as its target T1, hIL-13. Put plainly: cell-based or functional assay. This is another data set of the same source.
The target of assay [5] is T1, hIL-13. In words: cell-based or functional assay. The source holds these as a separate data set.
Another assay concerns the target biotinylated hIL-13 (human, UniProt P35225 35-146, limits assumed, biotinylated (site not stated)). Put plainly: FACS; blockade of biotinylated hIL-13 (0.05 ug/mL) binding to HEK293 cells expressing hIL-13Rα1/hIL-4Rα. Here is the method: Briefly, HEK293 previously transduced to stably express both hIL-13Rα and hIL-4Rα were cultured and harvested. Cells were seeded at 200,000 cells in 100 uL per well. Cells were washed and the supernatant was discarded. […] The cells were stained in this mixture at 4° C. for 1 hour. […] Cells were incubated at 4° C. for 1 hour, protected from light. Cells were then washed and the median fluorescence intensity (MFI) of cells in each well were recorded by FACS using a BD FACSCanto II. Subsequent data were analyzed using GraphPad Prism.

The target of assay [6] is T1, hIL-13. In words: ELISA. On the technique in general: An ELISA detects its analyte on a solid surface through an enzyme-linked reagent.

T1 sequence (P35225 other isoform, or with tags, fused parts or gaps limits assumed): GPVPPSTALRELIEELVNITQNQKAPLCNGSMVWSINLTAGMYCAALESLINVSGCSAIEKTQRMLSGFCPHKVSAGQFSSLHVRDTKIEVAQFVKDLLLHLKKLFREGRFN
biotinylated hIL-13, sequence (P35225 other isoform, or with tags, fused parts or gaps limits assumed): as above
T2 sequence (P35225 other isoform, or with tags, fused parts or gaps limits assumed): as above

B1: Construct 129 (antibody, human IgG4, kappa)
heavy: QVTLRESGPALVKPTQTLTLTCTVSGFSLSAYSVNWIRQPPGKALEWLAMIWGDGKIVYNSALKSRLTISKDTSKNQVVLTMTNMDPVDTATYYCAGDGYYPYAMDNWGQGSLVTVSSASTKGPSVFPLAPCSRSTSESTAALGCLVKDYFPEPVTVSWNSGALTSGVHTFPAVLQSSGLYSLSSVVTVPSSSLGTKTYTCNVDHKPSNTKVDKRVESKYGPPCPSCPAPEFLGGPSVFLFPPKPKDTLMISRTPEVTCVVVDVSQEDPEVQFNWYVDGVEVHNAKTKPREEQFNSTYRVVSVLTVLHQDWLNGKEYKCKVSNKGLPSSIEKTISKAKGQPREPQVYTLPPSQEEMTKNQVSLTCLVKGFYPSDIAVEWESNGQPENNYKTTPPVLDSDGSFFLYSRLTVDKSRWQEGNVFSCSVLHEALHSYTQKSLSLSLGK
light: DIVMTQSPDSLSVSLGERATINCRASKSVDSYGNSFMHWYQQKPGQPPKLLIYLASNLESGVPDRFSGSGSGTDFTLTISSLQAEDVAVYYCQQNNEDPRTFGGGTKVEIKRTVAAPSVFIFPPSDEQLKSGTASVVCLLNNFYPREAKVQWKVDNALQSGNSQESVTEQDSKDSTYSLSSTLTLSKADYEKHKVYACEVTHQGLSSPVTKSFNRGEC
notes: also called Lebrikizumab-HC; Lebrikizumab-LC
For B1, the “TARC Inhibition IC50 (A549 cells)” value with hIL-13 [1] came to 0.92 nM. The Kd (in general, a measure of binding affinity in units of concentration) in assay [2] worked out at 0.239 nM; in assay [3] it was 0.882 nM; in the assay with hIL-13 [6] it was 0.036 nM. Besides, the “pSTAT6 Inhibition IC50 (HT-29 cells)” value with hIL-13 [4] worked out at 0.33 nM. The “TF-1 Proliferation Inhibition IC50” value with hIL-13 [5] came out at 0.21 nM. Besides, in the assay with biotinylated hIL-13, the half-maximal inhibitory concentration (IC50) (commonly the concentration at which inhibition is half-maximal) was 0.71 nM.

B2: Construct 142 (antibody, human IgG4, kappa)
heavy: EVQLQESGPGLVKPSETLSLTCTVSGFSLNAYSVNWIRQPPGKGLEWLGMIWGDGKIVYNSALKSRLTISKDSSKNQVSLKLSSVTAADTAVYYCAGDGYYPYAMDNWGQGTTVTVSSASTKGPSVFPLAPCSRSTSESTAALGCLVKDYFPEPVTVSWNSGALTSGVHTFPAVLQSSGLYSLSSVVTVPSSSLGTKTYTCNVDHKPSNTKVDKRVESKYGPPCPSCPAPEFLGGPSVFLFPPKPKDTLYITREPEVTCVVVDVSQEDPEVQFNWYVDGVEVHNAKTKPREEQFNSTYRVVSVLTVLHQDWLNGKEYKCKVSNKGLPSSIEKTISKAKGQPREPQVYTLPPSQEEMTKNQVSLTCLVKGFYPSDIAVEWESNGQPENNYKTTPPVLDSDGSFFLYSRLTVDKSRWQEGNVFSCSVMHEALHNHYTQKSLSLSLGK
light: DIQLTQSPSSLSASVGDRVTITCRASKSVDSYGNSFMHWYQQKPGKAPKLLIYLASELESGVPSRFSGSGSGTDFTLTISSLQPEDFATYYCQQNNEDPRTFGGGTKVEIKRTVAAPSVFIFPPSDEQLKSGTASVVCLLNNFYPREAKVQWKVDNALQSGNSQESVTEQDSKDSTYSLSSTLTLSKADYEKHKVYACEVTHQGLSSPVTKSFNRGEC
notes: also called HC1; LC6_m8
As for B2, in the assay with hIL-13 [1], the “TARC Inhibition IC50 (A549 cells)” value worked out at 0.92 nM. For the same molecule, the Kd in assay [2] was 0.108 nM; in assay [3] it was 0.326 nM; in the assay with hIL-13 [6] it was 0.054 nM. Further, the “pSTAT6 Inhibition IC50 (HT-29 cells)” value with hIL-13 [4] was determined as 0.29 nM. In addition, the “TF-1 Proliferation Inhibition IC50” value with hIL-13 [5] came to 0.2 nM. Also, the IC50 with biotinylated hIL-13 was 0.77 nM.
